Reference: the supplement of paper PMC7125110
± gives the standard error. For some of these results: This sample holds only a part of the variants without activity.

B1: glmS ribozyme (parent)
chain: AUAAAAGCGCCAGAACUACAGAAAUGUAGUUGACGAGGAGGAGGUUUAUCGAAUUUUCGGCGGAUGCCUCCAAA

Legend:
Settings in all cases: with glucosamine-6-phosphate
glucosamine-6-phosphate [1] = variants of: B1; experiment: kcat; higher = faster cleavage; RNA array
How it was run: (§1)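 Tracking of barcoded ribozyme variants used a hybridised Cy3 probe at 37 °C, after in situ transcription by E. coli RNA polymerase on sequenced MiSeq chips. The flowed solution held 40 μM to 10 mM glucosamine-6-phosphate in HEPES/KCl/Mg(OAc)2 buffer, and imaging ran over ~14 h. kobs was taken from exponential decay fits of normalised per-tile medians, and kcat and KM from weighted Michaelis–Menten fits.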

glucosamine-6-phosphate [2] = variants of: B1; experiment: KM; higher = weaker cofactor use; RNA array
How it was run: as §1

glucosamine-6-phosphate [3] = variants of: B1; experiment: self-cleavage kobs at 40 uM GlcN6P; higher = faster cleavage; RNA array
How it was run: as §1

glucosamine-6-phosphate [4] = variants of: B1; experiment: self-cleavage kobs at 160 uM GlcN6P; higher = faster cleavage; RNA array
How it was run: as §1

glucosamine-6-phosphate [5] = variants of: B1; experiment: self-cleavage kobs at 640 uM GlcN6P; higher = faster cleavage; RNA array
How it was run: as §1

glucosamine-6-phosphate [6] = variants of: B1; experiment: self-cleavage kobs at 10000 uM GlcN6P; higher = faster cleavage; RNA array
How it was run: as §1

glucosamine-6-phosphate [7] = variants of: B1; experiment: self-cleavage kobs at 2500 uM GlcN6P; higher = faster cleavage; RNA array
How it was run: as §1

Variant	kcat (glucosamine-6-phosphate [1])	KM (glucosamine-6-phosphate [2])	self-cleavage kobs at 40 uM GlcN6P (glucosamine-6-phosphate [3])	self-cleavage kobs at 160 uM GlcN6P (glucosamine-6-phosphate [4])	self-cleavage kobs at 640 uM GlcN6P (glucosamine-6-phosphate [5])	self-cleavage kobs at 10000 uM GlcN6P (glucosamine-6-phosphate [6])	self-cleavage kobs at 2500 uM GlcN6P (glucosamine-6-phosphate [7])
A12U U56C	0.0355 ± 0.014 s⁻¹	2940 ± 1400 µM	0.000487 ± 0.00011 s⁻¹	0.00159 ± 0.00028 s⁻¹	0.00808 ± 0.0013 s⁻¹	0.0251 ± 0.0075 s⁻¹	–
A14U G40U	0.00162 ± 0.0004 s⁻¹	4230 ± 1500 µM	3.43e-05 ± 1.2e-05 s⁻¹	6.75e-05 ± 1.2e-05 s⁻¹	0.000205 ± 3e-05 s⁻¹	0.00123 ± 0.00015 s⁻¹	0.000535 ± 7.1e-05 s⁻¹
A15G U57C C58A	3.45e-05 ± 4.1e-06 s⁻¹	–	–	–	–	3.05e-05 ± 1.1e-05 s⁻¹	–
U31C C50G	6.62e-05 ± 2.8e-05 s⁻¹	–	2.9e-05 ± 1.3e-05 s⁻¹	0.000114 ± 1.7e-05 s⁻¹	0.000104 ± 2e-05 s⁻¹	–	8.9e-05 ± 1.3e-05 s⁻¹
C16U U57G	7.51e-05 ± 1.3e-05 s⁻¹	–	–	–	3.61e-05 ± 1.3e-05 s⁻¹	7.03e-05 ± 1.1e-05 s⁻¹	4.22e-05 ± 8.4e-06 s⁻¹
G32U U56G	0.00104 ± 0.00031 s⁻¹	6410 ± 2800 µM	–	5.05e-05 ± 1.1e-05 s⁻¹	8.33e-05 ± 1.2e-05 s⁻¹	0.000633 ± 6.8e-05 s⁻¹	0.000317 ± 5e-05 s⁻¹
A39C U45A A53U C70U	4.71e-05 ± 2.2e-06 s⁻¹	835 ± 200 µM	–	–	–	4.34e-05 ± 1.8e-05 s⁻¹	–
C16U G29A G66A	0.00966 ± 0.0019 s⁻¹	597 ± 190 µM	0.000592 ± 0.00015 s⁻¹	–	0.00534 ± 0.001 s⁻¹	0.0139 ± 0.0063 s⁻¹	0.00654 ± 0.0021 s⁻¹
A48U C58G	1.01e-05 ± 4e-06 s⁻¹	–	–	–	–	–	–
C16G G29A	0.00419 ± 0.00058 s⁻¹	1940 ± 370 µM	9.85e-05 ± 1.6e-05 s⁻¹	0.000295 ± 5.2e-05 s⁻¹	0.00103 ± 0.00015 s⁻¹	0.00387 ± 0.00066 s⁻¹	0.00212 ± 0.00039 s⁻¹
U54G C70G	0.000119 ± 2.1e-05 s⁻¹	–	8.74e-05 ± 8.1e-06 s⁻¹	0.000128 ± 1.7e-05 s⁻¹	0.000182 ± 2.2e-05 s⁻¹	9.76e-05 ± 9.2e-06 s⁻¹	0.000182 ± 2.5e-05 s⁻¹
A53C A64C	8.21e-05 ± 2.3e-05 s⁻¹	–	–	–	–	6.96e-05 ± 1.6e-05 s⁻¹	–
U45C G66U	0.000814 ± 9.5e-05 s⁻¹	2830 ± 630 µM	–	4.7e-05 ± 1.5e-05 s⁻¹	0.000151 ± 3.2e-05 s⁻¹	0.000653 ± 8.2e-05 s⁻¹	0.000326 ± 8.3e-05 s⁻¹
U47G C50G C68U	6.02e-05 ± 2e-05 s⁻¹	–	–	7.17e-05 ± 9.5e-06 s⁻¹	–	3.03e-05 ± 1.3e-05 s⁻¹	7.59e-05 ± 1.6e-05 s⁻¹
C16A G40U	9.3e-05 ± 2.3e-05 s⁻¹	–	–	–	4.49e-05 ± 1.2e-05 s⁻¹	7.36e-05 ± 1.2e-05 s⁻¹	0.000122 ± 1.6e-05 s⁻¹
A36U U49G	2.84e-05 ± 1.2e-05 s⁻¹	–	< 1e-05 s⁻¹	–	–	–	3.43e-05 ± 1.7e-05 s⁻¹
G44C C67G	0.0216 ± 0.0034 s⁻¹	3930 ± 790 µM	0.000211 ± 4.8e-05 s⁻¹	0.000995 ± 0.00033 s⁻¹	0.00316 ± 0.00083 s⁻¹	0.0168 ± 0.0047 s⁻¹	0.00752 ± 0.0019 s⁻¹

Variant	kcat (glucosamine-6-phosphate [1])	KM (glucosamine-6-phosphate [2])	self-cleavage kobs at 40 uM GlcN6P (glucosamine-6-phosphate [3])	self-cleavage kobs at 160 uM GlcN6P (glucosamine-6-phosphate [4])	self-cleavage kobs at 640 uM GlcN6P (glucosamine-6-phosphate [5])	self-cleavage kobs at 10000 uM GlcN6P (glucosamine-6-phosphate [6])	self-cleavage kobs at 2500 uM GlcN6P (glucosamine-6-phosphate [7])
A36U A64G C70U	6.13e-05 ± 1.3e-05 s⁻¹	–	–	–	–	5.17e-05 ± 1.8e-05 s⁻¹	7.29e-05 ± 2.6e-05 s⁻¹
A39U U45C	0.00276 ± 0.0012 s⁻¹	–	–	8.23e-05 ± 1.6e-05 s⁻¹	0.000268 ± 4.7e-05 s⁻¹	0.002 ± 0.00034 s⁻¹	0.000599 ± 0.00011 s⁻¹
U55C U69C	0.00119 ± 0.00046 s⁻¹	–	–	–	6.77e-05 ± 2.8e-05 s⁻¹	0.000523 ± 0.00012 s⁻¹	0.000177 ± 2.6e-05 s⁻¹
A42U U54A	0.000282 ± 2.2e-05 s⁻¹	1890 ± 340 µM	–	–	6.94e-05 ± 9.8e-06 s⁻¹	0.000231 ± 2e-05 s⁻¹	0.000177 ± 2e-05 s⁻¹
A15C C16U A53G U55A C68G	3.32e-05 ± 6.7e-06 s⁻¹	–	–	3.89e-05 ± 1.8e-05 s⁻¹	–	–	3.96e-05 ± 1.4e-05 s⁻¹
U47C U69A	0.000275 ± 6.6e-05 s⁻¹	–	2.9e-05 ± 1.4e-05 s⁻¹	–	5.97e-05 ± 2.2e-05 s⁻¹	0.00023 ± 3.1e-05 s⁻¹	0.000178 ± 5.8e-05 s⁻¹
C11A U69A	4.95e-05 ± 1.6e-05 s⁻¹	–	–	–	6.89e-05 ± 2.4e-05 s⁻¹	–	7.69e-05 ± 2.5e-05 s⁻¹
C8A G35U	< 1e-05 s⁻¹	–	–	–	–	< 1e-05 s⁻¹	< 1e-05 s⁻¹
G63C C71G	< 1e-05 s⁻¹	222 ± 79 µM	< 1e-05 s⁻¹	< 1e-05 s⁻¹	< 1e-05 s⁻¹	< 1e-05 s⁻¹	–
G51C U69A	< 1e-05 s⁻¹	–	< 1e-05 s⁻¹	–	–	–	–
A64C U69G	1.56e-05 ± 5e-06 s⁻¹	–	< 1e-05 s⁻¹	–	–	–	–
C16U G41U	0.00145 ± 0.00031 s⁻¹	599 ± 170 µM	9.78e-05 ± 8.3e-06 s⁻¹	0.000229 ± 4.6e-05 s⁻¹	0.000727 ± 0.00014 s⁻¹	0.00126 ± 0.00027 s⁻¹	0.00155 ± 0.00029 s⁻¹
A14U C71A	0.00123 ± 0.0004 s⁻¹	2040 ± 970 µM	5.26e-05 ± 9.6e-06 s⁻¹	8.35e-05 ± 1.2e-05 s⁻¹	0.00027 ± 4.3e-05 s⁻¹	0.00114 ± 0.00019 s⁻¹	0.000647 ± 8.4e-05 s⁻¹
G7U A14U G29A G37U C61G U69C	0.000491 ± 3.7e-05 s⁻¹	143 ± 19 µM	0.000105 ± 2.3e-05 s⁻¹	0.000282 ± 7.4e-05 s⁻¹	0.000389 ± 0.00014 s⁻¹	–	0.000446 ± 0.00019 s⁻¹
A52C C70A	1.34e-05 ± 4e-06 s⁻¹	–	–	–	–	–	–
U47A G59U	5.89e-05 ± 1.5e-06 s⁻¹	–	–	–	–	–	–
A33C U55A	0.000974 ± 0.00015 s⁻¹	3160 ± 940 µM	–	3.03e-05 ± 1.4e-05 s⁻¹	0.000183 ± 3.5e-05 s⁻¹	0.000717 ± 7.8e-05 s⁻¹	0.000519 ± 9.2e-05 s⁻¹
